Laboratory results as given in the nanobody polyreactivity screen of Harvey et al. (2022).

experiment: yeast display, Sf9 membrane polyspecificity reagent, FACS + sequencing; frameworks hold sequencing errors
Summary of the method: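 A nanobody's polyreactivity label depends on the gate it was sorted from. Yeast display cells were stained with 10% biotinylated, detergent-solubilized Sf9 membrane reagent for 1 hour at 4 °C, enriched on streptavidin microbeads and sorted by FACS. The low and high (top ~1%) gates were set on anti-HA fluorescence for expression and streptavidin fluorescence for reagent binding.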

| Sequence | polyreactivity (PSR sort gate) |
| --- | --- |
| QVQLVESGGGLVQAGGSLRLSCAASGSTLYYNAMGWYRKAPGKERELVADITSGGSTSYADSVKGRFTISRDNAKNTVYLQMNSLKPEDTAVYYCAAVFYRRFDYWGQGTQVTVSS | low polyreactivity |
| QVQVVESGGGLVQAGGSLGLSCAASGSIFGTNAMGWSRQAPGKERELVAAISSSGTSTYYADSVKGRFTISRDKAKNTDYLQMNSLKPEDTAVYYCAAATNWGGEYWGQGTQVTVSS | high polyreactivity |
| QVQLVESGGGLVQAGGSLRLSCAASGSIFYAYAMGWYRQAPGKERELVAVISRGGITNYADSVKGRFTISRDNAKNTVYLQMNSMKPEDTAVYYCAAATSAWGYLRRYGYWGQGTQVTVSS | low polyreactivity |
| QVQLVESGGGLVQAGGSLRLSCAASGRTFAFYAMGWYRPAPGKERELVASIRGGGGTNYADSVKGRFTISRDNAKNPVYLQMNSVKPEDTAVYYCAARGYGYRGYYYWGQGTQVTVSS | high polyreactivity |
| QVQLVESGGGLVQAGGSLRLSCAATGLTVRYYTMGWYRQAPGKERELVASITIRGGSTYYADSVKGRFTISRDNAKNTVYLQMNSLKAEDTAVYYCNTRYGYSFGYWGQGTQVTVSS | high polyreactivity |
| QVQLVESGGGLVQAGGSLRLSCAASGSIFFRYAMGWYRQAPGKERELVAAISDSGGTTYYADSVKGRFTISRDNAKNTVYLQMNSLKPEDTAVYYCAARFIYYSNRYYRYREFNYWGQGTQVTVSS | high polyreactivity |
| QVQLVESGGGLVQAGGSLRLSCAASGSTFWYYTMGWYRQAPGKERELVAAITESGGGTYYADSVKGRFTISRDNAKNTVYLQMNSLKPEDTAVYYCAAYSRFTSDYWGQGTQVTVSS | high polyreactivity |
| QVQLVESGGGLVQAGGSLRLSCAASGSTLSTYVMGWYRQAPGKERELVAAITRRGGITYYADSVKGRFTISRDNAKNTVYLQMNSLKPEDTAVYYCNRLRYPHTFQTGGYWGQGTQVTVSS | high polyreactivity |
| QVQLVESGGGLGQAGGSLRLSSAASGFTFRRNAMGWYRQAPGKERELVAAINVRDGSTYYADSVKGRFTISRDNAKNTVYLQMNSLKPEDTAVYYCAAEFFQGYYWYYYWGQGTQVTVSS | high polyreactivity |
| QVQLVESGGALVQAGGSLRLSCAASGRTFYPNAMGGYRQAPGKERELVAGSSYGTGSTYYADSVKGRFTISRDNAKNTVYLQMNSLKAEDNAVYYCAADNWAVNAYYWYIYDYWGQGTQVTVSS | low polyreactivity |
| QVQLVESGGGLVQAGRTLRLSCAASGRTLGLYAMGWYRQAPGKERELVAAITTSGGSTSYADSVKGRFTISRDNAKNTVYLEMNSLKPEDTSVYYCAVDVEVTFFQYSWIYGSWGQGTQVTVSS | low polyreactivity |
| QVQMQESGGGLVQAGGSLRLSCAASCTISQEDWMGWYRQAPGKEREFVAAIGLGSNTNYADSLKGRFTISRDNAKNTVYLQMNSLKPEDTAVYYCAVSVWQYSDHVFRGQGTQVTVSS | low polyreactivity |
| QVQLVESGGGLVQAGGSLRLSCAASGRILASYAMGWYRQAPGKERELVAAISRSGGSTYYADSVKGRFTISRDNAKNTVYLQMNSLKPEDTAVYYCAAKYPQKTPVNSYGILDSWGQGTQVTVSS | high polyreactivity |
| QVQHVESGGGLVQAGGSLRLSCAASGLTSVINAMGWYRQAPGKERELVAAMTNGGSTSYADSVKGRFTISRDNAKNPVYLQMNSLKPEDTAVYYWAADIVSSTDYPFDYWGQGTQVTVSS | low polyreactivity |
| QVQLVESGGGLDQARGSLRLSCAASGRTFRYYAMGWYRQAPWKERELVAAISSRGTRTYYADSVKGRFTISRDNAKNTVYLQMNSLKPEDTAVYYCATRYYQELSYDYWGQGTQVIVSS | high polyreactivity |
| QVQLVESGGGLVQAGGSLRLSCAASGFIIDTYPMGCYRQAPGKERELVAAITRSGGSTYYADSVKGRFTISRDNAKNTVYLQMNSLKPEDTAVYYCAARQRYTRYDYWGQGTQVTVSW | high polyreactivity |
| QVQLVESGGGLVQAGGSLRLSCAASGRTFRAYAMGWYRQAPGKEMELVAGITSGGSTNYADSVKGRFTISRDNAKNTVYLQMNSLKPEDTAVYYCAARRGTYRYRYDYWGQGTQVTVSS | high polyreactivity |
| QVQLVESGGGLVQAGGSLRLSCDASGSIFPVYAMGWYRQAPGKERELVAAISSRGGRTYYADSVKGRFTISRDNAKNTVYLQMNSLKPEDNAVYYCATDYATYYRLPSQYDYWGQGTQVTVSS | low polyreactivity |
| QVQLVESGGGLVQAGGSLRLSCAASGRILKWYAMGGYRQAPGKVRELVAAISARGGSTFYADSVKGRFTSSRDNAKNTVYLPMNSLKPEDTAVYYCAKRWPYTMYYWGQGTQVTVSS | high polyreactivity |
| QVQLVESGGGLVQAGGSLRLSCAASGRTFGPYARGWYIQAPGKERELVAAISWIGTSTYYADSVKGRFTISRDNAKNTVYLQMNSLKPEDTAVYYCAALEKNYTTKFYYWGQVTQVTVSS | high polyreactivity |
| HVQLVESGGGLVQAGGSLRLSCAASGRTFVVNAMGWYRQAPGTEREFVAAISYRGDSTYYAVSVKGRFTFSRDNSKNTVYLQMNSLKPEDTAVYYCAARVLGPGRRYYYWGQGTQVTVSS | high polyreactivity |
| QVQLVESGGGLVQAGGILRLSCAASGSTTYYYAMGWYRQQPGKDRELVATISTTGAGTYYADSVKGRFTISRDNAKNTVYLQMNSLKPEDTAVYYCAKDGKASRDDAEYDYWGQGTQVTVSS | low polyreactivity |

| Sequence | polyreactivity (PSR sort gate) |
| --- | --- |
| QVQLVESGGGLVQAGGSLRLSCAASGRIFSWYDMGWDRQAPGKERELVAAISSGGSTIYADSVKGRFTISRDNAKQTVYLQMNSLKPEDTAVSYCNKSPSWWRYKTGLDYWGQGTQVTVSS | high polyreactivity |
| QVQLVESGGGLVQAGGSLRLSCAASGRNFGRNGMGWYRQAPGKERELVAAISIGDSTTYADSVKGRFTISRDNAKNTVYLQMNSLKPEDTAVFYCAAELERYPVWEYRGKYDYWGQGTQVTVSS | low polyreactivity |
| QVQLVESGGGLVQAGGSLRLICAASGSIFSWYTMGWYRQAPGKERELVARITTSGGTTRYADSVKGRFTISRDNAKHTAFIQMNSLKPVDTAVYYCAADRSPYWRGYVRYNYWGQGTQVTVSS | high polyreactivity |
| QVQLVESGGGLVQAGGSLRLSCAASGSIFGVYTMGWYRQAPGKERELVAAITSAGSTYAYSVKGRFTISRDNAKNTVYLQMNSLKPEDTAVYYCNAQSVLLSLRVELREPHEYWGQGTQVTVSS | low polyreactivity |
| QVQLVESGGGLVQAGGSLRLSCAASGGIFSPNAMGWYRQAPGKERELVAAISSNGGSTNYADSVKGRFTISRDHAKNTVYLQMNSLKPEDTAVYYCAGLQKRRSYWRPFYWGQGTQVTVSS | low polyreactivity |
| QVQLVESGGGLVQAGGSLRLSCAASGYTFFYYAMGWSRQAPGKERELVAIDLNGGSTYYADSVKGRFTISRDNAKNTVYLQMNSLKPEDTAVSSCAATRPWYGDVGYLEDYWGQGTQVTVSS | low polyreactivity |
| QDQLVESGGGLVQAGGSLRLTCAASGFTIWYYAMGWYRQAPGKERELVAAISSVSSTKYADSVKGRFTISRDNAKNTVYFQMNSLKPEDTAVYYCAADIVRYWRHGFGWRRYDYWGQGTQVTVSS | high polyreactivity |
| QLQLVESCGVLVQAGGSLRLSCAASGRTHGNNAMGCYRQAPGKERELVAITYRGGSTYYADSVKGRFTISRDNAKNTVYLQMNSLKPEDTAVYYCNVDIISKVDTNKYEYWGQGTQVTVSS | low polyreactivity |
| QVQLVESGGGLVQAGGSLRLSCAASGFIITYYAMGWYRQATGKDRELVAVISWSGGTTYYAESVKGRFTISRDNATNTVYLQMNSLKPEDTAVYYCAAYRYFRPGDYWGQGTQVTVSS | low polyreactivity |
| QVQLVESGGGLVQAGGSLRLSCAASGIIFTRNAMGWYRPAPGKERELVAASSRSGGSTYYADSVKGRFTISRDNAKNTVYLQMNSLKPEDTAVYDGAAAWSEYPYDYWGQGTQVTVSS | low polyreactivity |
| QVHLVESGGGLVQAGGSLRLSCAASGSTFYVNAMGWDRQAPGKERELVAAIRSSGRTNYADSVKGRFTISRDNAKNTVYLQMNSLKPEDTAVYYCAAEVPHWPYYGRLHDRDYWGQGTQVTVSS | low polyreactivity |
| QVQLVESGGGLVQAGGSLRLSCAASGNIFVYYAMGWYRQAPGKERELVAAISFRGGTTYYADSVKGRFTISRDNAKNTVYLQMNSLKPEDTAVYYCAKDIFQIGYRRYDSWGQGTQVTVSS | low polyreactivity |
| QVQLVESGGGLVQAGGSLRLSCAASGSIFNYYAMGWYRQAPGKERELVAGITTSGGSTYYADSVKGRFTISRDNAKNTVYLQMISLKPEDTAVYYCAAYDYISSTYFLDDYWGQGTQVSVSS | low polyreactivity |
| QVQLVESGGGLVQAGGSLRLSCADSGSTFQANAMGWYRQAPGKERELVATISNDGSTKYADSVKGRFTISRDNAKNTVYLQMNSLKPEDTALYYCAADSARHGRDTYQPEYRNDYWGQGTQVTVSS | low polyreactivity |
| QVQLVESGGGLVQAGGSLRLSCAASGSTFHYYAMGWYRQAPGKERELVAAINSGARTYYADSVKGRFTISRDNAKNTVYLQMNSLKPEDTAVYYCAKDYTYSFGRSLDYWGQGTQVTVSS | low polyreactivity |
| QVQLVESVGGLVQAGGSLRLSCAASGNTFYAYAMGWYRQAPGKERELVAAIRKSGGNTYYADSVKGRFTISRYNAKNNVYLQMYSLKPEDTAVYYCAARYRGYAFLNYDYWGQGTQVTVSS | low polyreactivity |
| QVQLVESGGGLVQAGGSLRLICAASGFIFGLNAIGWYRQAPGKERELVAAIRSASSTNYADSVKGRFTISRDNAKNTVYLQMNSLKPEDTAVYYCAAEDFTRQFEYWGQGTQVTVSS | low polyreactivity |
| QVQLVESGGGLVQAGGSLRLSCAASGFIFPSNSMGWYRQAPGKEREFVAAISSRGGSTTYADSVKGRFTISRDYAKNTVYLQMNSLKPEDTAVYYCARDWYYYPQYRQRYYYWGQGTQVTVSS | high polyreactivity |
| QVQLVESGGGLVQAGGSLRLSCAASGRIFRRNAMGWYRQAPGKEREFVAAISYRGGSTYYADSVKGRFTISRDNAKNTVYLQMNSLKPEDTAVYYCAATGYGSAYNPYDHWGQGTQVTVSS | high polyreactivity |
| QVQLVESGGGLVQAGGPLRLSCAASGYLFSYYAMGWSRQAPGKERELVATIDWGGGSTYYADSVKGRFTISRDNANNTVYLQLNSLKPEDTAVYYCSKDYYINKYGYRYDSWGQGTQVTVSS | low polyreactivity |
| QVQLVESGGGLVQAGGSLRLSCAASGFIFGDYAMGWYRQAPGKERELVAAINYSGGSTYYADSVKGRFTISRDNAKNTVYLQMNSLKPEDTAVYYCAALIYGLVGWGQGTQVTVSS | low polyreactivity |
